Assay results as given in patent US6110707.

Key:
[1] = target: human preproinsulin (human); conditions: scale: % of intracellular human insulin species left as proinsulin and intermediates
[2] = target: mutated human preproglucagon (arginine to alanine at amino acid residue 52) (human)
[3] = target: human preproglucagon (human)

HPLC separation of intracellular immunoreactive insulin species (processing of human proinsulin to mature insulin in engineered RIN cells) [1]	NON (% TOTAL): non-amidated GLP-1 as percentage of total GLP-1 (non-amidated and amidated), by two specific immunoassays (% non-amidated of total GLP-1) [2]	NON (% TOTAL): non-amidated GLP-1 as percentage of total GLP-1 (non-amidated and amidated), by two specific immunoassays (% non-amidated of total GLP-1) [3]	Substance
8			PC2 (from UniProt P28841) (enzyme)
8			PC3 (from UniProt P28840) (enzyme)
	59	49	peptidylglycine alpha-amidating monooxygenase (PAM) (from UniProt P14925) (enzyme)
